This experiment relates to EB derived cells in E12.5 cultured kidney rudiments. Put plainly: Injection of EB derived cells into E12.5 cultured kidney rudiments, lacZ / laminin / LTA staining. It is filed as cell-based, mouse. As to conditions: for contribution to developing tubules: compared to untreated EB cells, rudiments 4 or 5 days after injection. As for the experimental part: Cryosections from kidney rudiments were stained for lacZ expression (A & C) and with anti-laminin antibodies (B & D). […] C & D) Many lacZ positive cells from control EBs were found in large and small aggregates (arrows) that remained mesenchymal in appearance and were not surrounded by laminin containing basement membranes. Some blue cells from control EBs were also found in tubules. Magnification bars are 100 microns.
E12.5 kidney rudiments were injected with RA7 treated EB cells (A-F) or control EB cells (G & H) and stained for lacZ, laminin, and LTA binding. […] Arrows point to glomerular tufts. B) Laminin staining of same tissue as in A. C & D) Co-localization of lacZ positive cells in developing proximal tubules (arrows) that also stain with LTA lectin (green) and are surrounded by laminin containing basement membranes (red). E & F) Another developing proximal tubule derived from RA7 treated EB cells (arrow) stained as above. G & H) Many control EB cells localize to interstitial and peripheral mesenchyme (arrows), though a small number of lacZ positive cells are also found in tubules.
This example describes cell culture and microinjection techniques utilized in experiments conducted during the course of the present invention. Mouse ES cells (R26) were grown in high glucose DMEM (GIBCO BRL), 10% fetal bovine serum (Atlanta Biologicals), 0.1 mM β-mercaptoethanol (Sigma), 4 mM glutamine (GIBCO BRL), 20 unit/ml PEN/STREP (GIBCO BRL), 0.1 mg/ml G418 (GIBCO BRL), and 10^3 unit/ml rLIF (Chemicon) on a 0.1% gelatin-coated tissue culture plate at 37° C. CO2 incubator for 2 days. The ES cells were transferred using 0.05% trypsin plus 0.53 mM EDTA (GIBCO BRL) to a 100-mm bacteriological petri dish (Falcon) to induce embryoid body (EB) formation. The EB suspension was cultured in the same medium without rLIF for 2 days and then transferred to 60-mm tissue culture plates coated with 0.1% gelatin. Each 60-mm tissue culture plate contained about 100 EBs. […]

B1: bmp4: growth factor (R & D Systems) added to retinoic acid and activin-a treated EBs (protein, UniProt P12644 293-408, looked up)
Bone morphogenetic protein 4: SPKHHSQRARKKNKNCRRHSLYVDFSDVGWNDWIVAPPGYQAFYCHGDCPFPLADHLNSTNHAIVQTLVNSVNSSIPKACCVPTELSAISMLYLDEYDKVVLKNYQEMVVEGCGCR
B1: the “contribution to developing tubules” value was “did not integrate”. Also, the “ability of EB cells to contribute to tubules in vitro” value (addition of 100 ng/ml bmp4) is listed as “completely inhibited”.

B2: bmp-7: growth factor (R & D Systems), third component of the nephrogenic cocktail (protein, UniProt P18075 293-431, looked up)
Bone morphogenetic protein 7: STGSKQRSQNRSKTPKNQEALRMANVAENSSSDQRQACKKHELYVSFRDLGWQDWIIAPEGYAAYYCEGECAFPLNSYMNATNHAIVQTLVHFINPETVPKPCCAPTQLNAISVLYFDDSSNVILKKYRNMVVRACGCH
Take B2: the “contribution to developing tubules” value is “enhanced”.

The record behind these values is US8470599B2, “Renal progenitor cells from embryonic stem cells” (The Regents of the University of Michigan, priority 2005, dated 2013).
